Experimental findings from PMC7876548 are described below.

pKd: −log10 of the molar value.

This experiment has as its target unmethylated D2 peptide (amino acids 208-243 of the third intracellular loop of the human D2 receptor) (human) (UniProt P14416). Description: fluorescence polarisation; anisotropy; fluorescently labelled D2 peptide at 0.025 µM final, Par-4 or CaM added from 10x stocks of 0-20 µM; 200 mM NaCl, 200 µM CaCl2, 50 mM Tris pH 7.5; room temperature, ten minutes; average of four trials.

Sequence of unmethylated D2 peptide (amino acids 208-243 of the third intracellular loop of the human D2 receptor) (human) (P14416 208-243): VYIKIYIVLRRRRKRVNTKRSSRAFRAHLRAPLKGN

In the case of “human Par-4 (prostate apoptosis response 4 protein) (from UniProt Q96IZ0 1-340) (natural protein)”, the pKd is 7.67.
